Assay results: patent publication US20260001928A1 (CORTERIA PHARMACEUTICALS, priority 2022, published 2026)
*1 amine or outer side, *2 acyl side, *3 side chain or, on linkers, in order; H or OH if unused. Where no end group is shown, it is not given here. Side-chain parts run from the residue outwards. [ ]: non-standard residue; d: D form. The star is where a group is joined. C20 diacid = O=C(O)CCCCCCCCCCCCCCCCCCC(=O)*; γGlu = O=C(O)[C@H](CCC(=O)[*:2])N[*:1]; NMeI = CC[C@H](C)[C@H](NC)C(=O)O; Pentanoyl = CCCCC(=O)*; AEEA = NCCOCCOCC(=O)O; Aib = CC(C)(N)C(=O)O

B1: SEQ ID NO 234 (peptide)
peptide: [NMeI]VLSLD[dV]PIKLK([AEEA-γGlu-C20 diacid])KILLEQEKQK[Aib]QREQAETN[Aib]QILAQV-NH2
modifications: N-terminus assumed
SMILES: CC[C@H](C)[C@H](NC)C(=O)N[C@H](C(=O)N[C@@H](CC(C)C)C(=O)N[C@@H](CO)C(=O)N[C@@H](CC(C)C)C(=O)N[C@@H](CC(=O)O)C(=O)N[C@@H](C(=O)N1CCC[C@H]1C(=O)N[C@H](C(=O)N[C@@H](CCCCN)C(=O)N[C@@H](CC(C)C)C(=O)N[C@@H](CCCCNC(=O)COCCOCCNC(=O)CC[C@H](NC(=O)CCCCCCCCCCCCCCCCCCC(=O)O)C(=O)O)C(=O)N[C@@H](CCCCN)C(=O)N[C@H](C(=O)N[C@@H](CC(C)C)C(=O)N[C@@H](CC(C)C)C(=O)N[C@@H](CCC(=O)O)C(=O)N[C@@H](CCC(N)=O)C(=O)N[C@@H](CCC(=O)O)C(=O)N[C@@H](CCCCN)C(=O)N[C@@H](CCC(N)=O)C(=O)N[C@@H](CCCCN)C(=O)NC(C)(C)C(=O)N[C@@H](CCC(N)=O)C(=O)N[C@@H](CCCNC(=N)N)C(=O)N[C@@H](CCC(=O)O)C(=O)N[C@@H](CCC(N)=O)C(=O)N[C@@H](C)C(=O)N[C@@H](CCC(=O)O)C(=O)N[C@H](C(=O)N[C@@H](CC(N)=O)C(=O)NC(C)(C)C(=O)N[C@@H](CCC(N)=O)C(=O)N[C@H](C(=O)N[C@@H](CC(C)C)C(=O)N[C@@H](C)C(=O)N[C@@H](CCC(N)=O)C(=O)N[C@H](C(N)=O)C(C)C)[C@@H](C)CC)[C@@H](C)O)[C@@H](C)CC)[C@@H](C)CC)C(C)C)C(C)C
B2: SEQ ID NO 235 (peptide)
peptide: Pentanoyl-VLSLD[dV]PIKLK([AEEA-γGlu-C20 diacid])KILLEQEKQKKQREQAETN[Aib]QILAQV-NH2
SMILES: CCCCC(=O)N[C@H](C(=O)N[C@@H](CC(C)C)C(=O)N[C@@H](CO)C(=O)N[C@@H](CC(C)C)C(=O)N[C@@H](CC(=O)O)C(=O)N[C@@H](C(=O)N1CCC[C@H]1C(=O)N[C@H](C(=O)N[C@@H](CCCCN)C(=O)N[C@@H](CC(C)C)C(=O)N[C@@H](CCCCNC(=O)COCCOCCNC(=O)CC[C@H](NC(=O)CCCCCCCCCCCCCCCCCCC(=O)O)C(=O)O)C(=O)N[C@@H](CCCCN)C(=O)N[C@H](C(=O)N[C@@H](CC(C)C)C(=O)N[C@@H](CC(C)C)C(=O)N[C@@H](CCC(=O)O)C(=O)N[C@@H](CCC(N)=O)C(=O)N[C@@H](CCC(=O)O)C(=O)N[C@@H](CCCCN)C(=O)N[C@@H](CCC(N)=O)C(=O)N[C@@H](CCCCN)C(=O)N[C@@H](CCCCN)C(=O)N[C@@H](CCC(N)=O)C(=O)N[C@@H](CCCNC(=N)N)C(=O)N[C@@H](CCC(=O)O)C(=O)N[C@@H](CCC(N)=O)C(=O)N[C@@H](C)C(=O)N[C@@H](CCC(=O)O)C(=O)N[C@H](C(=O)N[C@@H](CC(N)=O)C(=O)NC(C)(C)C(=O)N[C@@H](CCC(N)=O)C(=O)N[C@H](C(=O)N[C@@H](CC(C)C)C(=O)N[C@@H](C)C(=O)N[C@@H](CCC(N)=O)C(=O)N[C@H](C(N)=O)C(C)C)[C@@H](C)CC)[C@@H](C)O)[C@@H](C)CC)[C@@H](C)CC)C(C)C)C(C)C
B3: SEQ ID NO 237 (peptide)
peptide: [NMeI]VLSLD[dV]PIKLK([AEEA-AEEA-γGlu-C20 diacid])KILLEQEKQKEQREQAETN[Aib]QILAQV-NH2
modifications: N-terminus assumed
SMILES: CC[C@H](C)[C@H](NC)C(=O)N[C@H](C(=O)N[C@@H](CC(C)C)C(=O)N[C@@H](CO)C(=O)N[C@@H](CC(C)C)C(=O)N[C@@H](CC(=O)O)C(=O)N[C@@H](C(=O)N1CCC[C@H]1C(=O)N[C@H](C(=O)N[C@@H](CCCCN)C(=O)N[C@@H](CC(C)C)C(=O)N[C@@H](CCCCNC(=O)COCCOCCNC(=O)COCCOCCNC(=O)CC[C@H](NC(=O)CCCCCCCCCCCCCCCCCCC(=O)O)C(=O)O)C(=O)N[C@@H](CCCCN)C(=O)N[C@H](C(=O)N[C@@H](CC(C)C)C(=O)N[C@@H](CC(C)C)C(=O)N[C@@H](CCC(=O)O)C(=O)N[C@@H](CCC(N)=O)C(=O)N[C@@H](CCC(=O)O)C(=O)N[C@@H](CCCCN)C(=O)N[C@@H](CCC(N)=O)C(=O)N[C@@H](CCCCN)C(=O)N[C@@H](CCC(=O)O)C(=O)N[C@@H](CCC(N)=O)C(=O)N[C@@H](CCCNC(=N)N)C(=O)N[C@@H](CCC(=O)O)C(=O)N[C@@H](CCC(N)=O)C(=O)N[C@@H](C)C(=O)N[C@@H](CCC(=O)O)C(=O)N[C@H](C(=O)N[C@@H](CC(N)=O)C(=O)NC(C)(C)C(=O)N[C@@H](CCC(N)=O)C(=O)N[C@H](C(=O)N[C@@H](CC(C)C)C(=O)N[C@@H](C)C(=O)N[C@@H](CCC(N)=O)C(=O)N[C@H](C(N)=O)C(C)C)[C@@H](C)CC)[C@@H](C)O)[C@@H](C)CC)[C@@H](C)CC)C(C)C)C(C)C
B4: SEQ ID NO 238 (peptide)
peptide: Ac-IVLSLD[dV]PIKLK([AEEA-AEEA-γGlu-C20 diacid])KILLEQEKQKKQREQAETN[Aib]QILAQV-NH2
SMILES: CC[C@H](C)[C@H](NC(C)=O)C(=O)N[C@H](C(=O)N[C@@H](CC(C)C)C(=O)N[C@@H](CO)C(=O)N[C@@H](CC(C)C)C(=O)N[C@@H](CC(=O)O)C(=O)N[C@@H](C(=O)N1CCC[C@H]1C(=O)N[C@H](C(=O)N[C@@H](CCCCN)C(=O)N[C@@H](CC(C)C)C(=O)N[C@@H](CCCCNC(=O)COCCOCCNC(=O)COCCOCCNC(=O)CC[C@H](NC(=O)CCCCCCCCCCCCCCCCCCC(=O)O)C(=O)O)C(=O)N[C@@H](CCCCN)C(=O)N[C@H](C(=O)N[C@@H](CC(C)C)C(=O)N[C@@H](CC(C)C)C(=O)N[C@@H](CCC(=O)O)C(=O)N[C@@H](CCC(N)=O)C(=O)N[C@@H](CCC(=O)O)C(=O)N[C@@H](CCCCN)C(=O)N[C@@H](CCC(N)=O)C(=O)N[C@@H](CCCCN)C(=O)N[C@@H](CCCCN)C(=O)N[C@@H](CCC(N)=O)C(=O)N[C@@H](CCCNC(=N)N)C(=O)N[C@@H](CCC(=O)O)C(=O)N[C@@H](CCC(N)=O)C(=O)N[C@@H](C)C(=O)N[C@@H](CCC(=O)O)C(=O)N[C@H](C(=O)N[C@@H](CC(N)=O)C(=O)NC(C)(C)C(=O)N[C@@H](CCC(N)=O)C(=O)N[C@H](C(=O)N[C@@H](CC(C)C)C(=O)N[C@@H](C)C(=O)N[C@@H](CCC(N)=O)C(=O)N[C@H](C(N)=O)C(C)C)[C@@H](C)CC)[C@@H](C)O)[C@@H](C)CC)[C@@H](C)CC)C(C)C)C(C)C
B5: SEQ ID NO 239 (peptide)
peptide: [NMeI]VLSLD[dV]PIKLK([AEEA-AEEA-γGlu-C20 diacid])KILLEQEKQK[Aib]QREQAETN[Aib]QILAQV-NH2
modifications: N-terminus assumed
SMILES: CC[C@H](C)[C@H](NC)C(=O)N[C@H](C(=O)N[C@@H](CC(C)C)C(=O)N[C@@H](CO)C(=O)N[C@@H](CC(C)C)C(=O)N[C@@H](CC(=O)O)C(=O)N[C@@H](C(=O)N1CCC[C@H]1C(=O)N[C@H](C(=O)N[C@@H](CCCCN)C(=O)N[C@@H](CC(C)C)C(=O)N[C@@H](CCCCNC(=O)COCCOCCNC(=O)COCCOCCNC(=O)CC[C@H](NC(=O)CCCCCCCCCCCCCCCCCCC(=O)O)C(=O)O)C(=O)N[C@@H](CCCCN)C(=O)N[C@H](C(=O)N[C@@H](CC(C)C)C(=O)N[C@@H](CC(C)C)C(=O)N[C@@H](CCC(=O)O)C(=O)N[C@@H](CCC(N)=O)C(=O)N[C@@H](CCC(=O)O)C(=O)N[C@@H](CCCCN)C(=O)N[C@@H](CCC(N)=O)C(=O)N[C@@H](CCCCN)C(=O)NC(C)(C)C(=O)N[C@@H](CCC(N)=O)C(=O)N[C@@H](CCCNC(=N)N)C(=O)N[C@@H](CCC(=O)O)C(=O)N[C@@H](CCC(N)=O)C(=O)N[C@@H](C)C(=O)N[C@@H](CCC(=O)O)C(=O)N[C@H](C(=O)N[C@@H](CC(N)=O)C(=O)NC(C)(C)C(=O)N[C@@H](CCC(N)=O)C(=O)N[C@H](C(=O)N[C@@H](CC(C)C)C(=O)N[C@@H](C)C(=O)N[C@@H](CCC(N)=O)C(=O)N[C@H](C(N)=O)C(C)C)[C@@H](C)CC)[C@@H](C)O)[C@@H](C)CC)[C@@H](C)CC)C(C)C)C(C)C
B6: SEQ ID NO 236 (peptide)
peptide: Ac-IVLSLD[dV]PIKLK([AEEA-AEEA-γGlu-C20 diacid])KILLEQEKQKEQREQAETN[Aib]QILAQV-NH2
SMILES: CC[C@H](C)[C@H](NC(C)=O)C(=O)N[C@H](C(=O)N[C@@H](CC(C)C)C(=O)N[C@@H](CO)C(=O)N[C@@H](CC(C)C)C(=O)N[C@@H](CC(=O)O)C(=O)N[C@@H](C(=O)N1CCC[C@H]1C(=O)N[C@H](C(=O)N[C@@H](CCCCN)C(=O)N[C@@H](CC(C)C)C(=O)N[C@@H](CCCCNC(=O)COCCOCCNC(=O)COCCOCCNC(=O)CC[C@H](NC(=O)CCCCCCCCCCCCCCCCCCC(=O)O)C(=O)O)C(=O)N[C@@H](CCCCN)C(=O)N[C@H](C(=O)N[C@@H](CC(C)C)C(=O)N[C@@H](CC(C)C)C(=O)N[C@@H](CCC(=O)O)C(=O)N[C@@H](CCC(N)=O)C(=O)N[C@@H](CCC(=O)O)C(=O)N[C@@H](CCCCN)C(=O)N[C@@H](CCC(N)=O)C(=O)N[C@@H](CCCCN)C(=O)N[C@@H](CCC(=O)O)C(=O)N[C@@H](CCC(N)=O)C(=O)N[C@@H](CCCNC(=N)N)C(=O)N[C@@H](CCC(=O)O)C(=O)N[C@@H](CCC(N)=O)C(=O)N[C@@H](C)C(=O)N[C@@H](CCC(=O)O)C(=O)N[C@H](C(=O)N[C@@H](CC(N)=O)C(=O)NC(C)(C)C(=O)N[C@@H](CCC(N)=O)C(=O)N[C@H](C(=O)N[C@@H](CC(C)C)C(=O)N[C@@H](C)C(=O)N[C@@H](CCC(N)=O)C(=O)N[C@H](C(N)=O)C(C)C)[C@@H](C)CC)[C@@H](C)O)[C@@H](C)CC)[C@@H](C)CC)C(C)C)C(C)C

target: human corticotropin-releasing factor 2a (CRF2a receptor) (human), Q13324; assay: cell-based or functional assay
Sequence (Q13324 20-411): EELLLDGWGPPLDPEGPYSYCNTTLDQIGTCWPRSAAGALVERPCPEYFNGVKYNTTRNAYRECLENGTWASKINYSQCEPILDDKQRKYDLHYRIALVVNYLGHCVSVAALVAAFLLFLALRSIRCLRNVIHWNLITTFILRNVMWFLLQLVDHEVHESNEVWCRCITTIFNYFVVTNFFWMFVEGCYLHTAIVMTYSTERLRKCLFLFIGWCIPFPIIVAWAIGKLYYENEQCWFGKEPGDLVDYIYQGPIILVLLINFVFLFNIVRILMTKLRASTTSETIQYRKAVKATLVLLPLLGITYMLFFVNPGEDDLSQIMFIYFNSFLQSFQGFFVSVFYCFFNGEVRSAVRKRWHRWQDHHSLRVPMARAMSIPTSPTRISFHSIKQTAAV

EC50 [nM] (cAMP)	Binder
0.09	B1
0.16	B2
0.41	B3
0.11	B4
0.11	B5
0.54	B6
